This assay has as its target CD123 (interleukin-3 receptor alpha) on CD123-positive human AML cells (KG-1a, Kasumi-3, AML patient blasts) (human) (UniProt P26951). The assay can be described thus: cell-based or functional assay.
Chain of UniProt P26951 (P26951 19-378): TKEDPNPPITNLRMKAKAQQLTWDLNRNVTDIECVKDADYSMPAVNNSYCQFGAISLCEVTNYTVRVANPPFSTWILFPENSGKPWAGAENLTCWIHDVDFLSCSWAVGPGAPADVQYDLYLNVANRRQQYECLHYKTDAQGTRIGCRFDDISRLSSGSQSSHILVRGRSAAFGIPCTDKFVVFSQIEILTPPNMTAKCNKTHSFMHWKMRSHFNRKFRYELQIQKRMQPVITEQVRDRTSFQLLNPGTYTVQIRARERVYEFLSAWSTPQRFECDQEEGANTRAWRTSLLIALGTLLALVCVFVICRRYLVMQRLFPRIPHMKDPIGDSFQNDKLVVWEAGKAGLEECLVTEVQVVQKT

Consider “XmAb14045 bispecific anti-CD123 x anti-CD3 Fab-scFv-Fc antibody (bispecific antibody)”, for which the T cell-dependent cytotoxicity (RTCC) against CD123+ KG-1a cells with human PBMC as effectors, EC50 is 0.28 ng/mL; the T cell-dependent cytotoxicity (RTCC) against CD123+ Kasumi-3 cells with human PBMC as effectors, EC50 was determined as 0.01 ng/mL; the apoptosis (annexin-V positivity) of CD123-expressing KG-1a cells with AML subject-derived PBMC, 48 hours worked out at 50%; the depletion of putative blast cell population in PBMC of 6 AML subjects, 48 hours lay within 20 to 90%. Besides, the reduction of putative leukemic blast number in AML PBMC, 9 or 90 ng/mL, 48 hours was found to be 80%.

For the origin of these results see patent US20200181274A1.
